The values below come from PMC3172300, “Modulation of Catalytic Activity in Multi-Domain Protein Tyrosine Phosphatases” (PLoS ONE, 2011).

Changes are numbered by the printed parent chain. Read-outs that look alike come from different tables or passages of the source.

Data set [1] deals with T1, DLAR D1D2 (Drosophila melanogaster, UniProt P16621).
T1 construct: DLAR 1448-2029; His tag (pET-15b or pET-22b); made in house; host or cells: E. coli BL21(DE3)
T1 sequence (P16621 1448-2029): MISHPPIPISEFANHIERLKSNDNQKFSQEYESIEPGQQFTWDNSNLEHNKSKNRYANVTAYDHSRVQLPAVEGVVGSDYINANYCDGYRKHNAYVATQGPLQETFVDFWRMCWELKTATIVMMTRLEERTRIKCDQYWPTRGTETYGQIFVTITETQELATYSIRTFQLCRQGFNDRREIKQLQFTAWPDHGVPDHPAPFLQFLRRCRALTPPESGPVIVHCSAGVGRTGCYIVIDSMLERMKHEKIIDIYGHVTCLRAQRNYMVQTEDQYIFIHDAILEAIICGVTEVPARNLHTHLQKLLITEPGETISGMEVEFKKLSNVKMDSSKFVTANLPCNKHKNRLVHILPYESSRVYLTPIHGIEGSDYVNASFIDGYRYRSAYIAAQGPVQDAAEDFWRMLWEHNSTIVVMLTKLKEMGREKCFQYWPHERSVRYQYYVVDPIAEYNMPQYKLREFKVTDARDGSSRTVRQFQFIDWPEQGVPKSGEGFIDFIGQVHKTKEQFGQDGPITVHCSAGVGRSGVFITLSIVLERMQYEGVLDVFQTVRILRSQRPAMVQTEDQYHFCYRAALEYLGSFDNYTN
Nature of the data set: Dephosphorylation of phosphotyrosine peptides (malachite green), DLAR D1D2. The note with it: 0.01 µM protein, 25 mM citrate pH 6.0, 15 min at 25°C, malachite green. Type of data set: biochemical. The text has this:
(§1) Substrates of PTPs characterized thus far include the activation loop segments of various kinases and regulatory loops of other signaling proteins. Suitably designed peptide substrates mimic the physiologically relevant substrates of PTPs. In the present study, peptide substrates were designed for DLAR for which more information was available on its interacting partners. […] The five peptides were chosen based on their distinct charge distributions around the central phosphotyrosine residue. The phosphorylated as well as non-phosphorylated peptides were obtained from GL Bioscience, China. The peptides were >95% pure and were used after a single round of desalting using a Sephadex G25 column (GE Healthcare). The concentration of the peptide samples for biochemical studies was ascertained by UV absorption at 268 nm for the pY residue.
(§2) Phosphatase activity of the recombinant PTP domains was determined by using para-Nitrophenylphosphate (pNPP), a small molecule generic substrate, as well as phosphotyrosine containing peptides. The pNPP assay was performed as reported previously, with a modification in the buffer composition (25 mM Citrate, Glycine and HEPES (CGH), pH 6.5, 100 mM NaCl and 2 mM DTT). Phosphatase activity with the phosphotyrosine peptides was ascertained by the malachite green reaction as described for PTPs previously. Briefly, the reaction mixture comprised of 0.01 µM protein incubated with increasing concentrations of different peptides in 25 mM citrate buffer pH 6.0, 100 mM NaCl and 2 mM DTT for 15 min at 25°C. The reaction was stopped by the addition of the Biomol Green reagent (Enzo Life Sciences) and the colour developed after 20 min was quantified at 650 nm. For all the assays, kinetic constants for the steady state catalysis were obtained by fitting the reaction curves to the Michaelis-Menten equation using the nonlinear regression module of Sigma plot software (Systat Software, Inc.).

The target of data set [2] is T2, DLAR D1 D2HSS (Drosophila melanogaster, UniProt P16621, C1961S).
T2 construct: DLAR 1448-2029; His tag (pET-15b or pET-22b); made in house; host or cells: E. coli BL21(DE3)
Type of data set: biochemical. The note with it: 0.01 µM protein, 25 mM citrate pH 6.0, 15 min at 25°C, malachite green.
Excerpt: as §1, §2

Another data set concerns the target T3, DLAR D1 (Drosophila melanogaster, UniProt P16621).
T3 construct: DLAR 1448-1746; His tag (pET-15b or pET-22b); made in house; host or cells: E. coli BL21(DE3)
T3 sequence (P16621 1448-1746): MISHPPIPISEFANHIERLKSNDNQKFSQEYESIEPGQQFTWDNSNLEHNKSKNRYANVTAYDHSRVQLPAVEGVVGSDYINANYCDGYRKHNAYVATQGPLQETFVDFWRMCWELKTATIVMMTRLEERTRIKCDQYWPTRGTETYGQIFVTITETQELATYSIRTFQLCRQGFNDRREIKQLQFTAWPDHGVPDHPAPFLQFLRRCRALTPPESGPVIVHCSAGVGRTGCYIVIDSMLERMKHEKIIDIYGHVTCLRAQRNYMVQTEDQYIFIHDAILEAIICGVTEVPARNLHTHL
In words: Dephosphorylation of phosphotyrosine peptides (malachite green), DLAR D1. The note with it: 0.01 µM protein, 25 mM citrate pH 6.0, 15 min at 25°C, malachite green. Type of data set: biochemical.
Excerpt: as §1, §2

The target in data set [3] is T1, DLAR D1D2. In words: Surface Plasmon Resonance peptide binding, DLAR D1D2. To be noted: two-site model; for kon: read-out: ka. The procedure: (§3) The binding of phosphotyrosine peptides to the PTP domains was studied by Surface Plasmon Resonance on a Biacore-2000 instrument (BIAcore, AB). All experiments were conducted at 25°C. DLAR PTP domains were immobilized onto carboxylated dextran CM5 chips (BIAcore AB) using the standard amine coupling procedure as recommended by the manufacturer. Binding and kinetic assays were performed in 10 mM HEPES, pH 8.0, 150 mM NaCl, 10 mM DTT and 3 mM EDTA at a flow rate of 5 µL/min. The peptides were used at concentrations ranging from 50–700 µM. Dissociation was initiated by replacing the analyte with buffer. The association and dissociation curves were monitored for 600 sec. Sensograms were analyzed with BIA-evaluation software version 2 (BIAcore AB). Sensograms for DLAR D1D2, DLAR D1HSSD2 and DLAR D1D2HSS were fitted to two-site binding equations. DLAR D1 and DLAR D2 sensograms were fitted using a single-site binding model.

Another data set concerns the target T4, DLAR D1HSS D2 (Drosophila melanogaster, UniProt P16621, C1670S).
T4 construct: DLAR 1448-2029; His tag (pET-15b or pET-22b); made in house; host or cells: E. coli BL21(DE3)
T4 sequence (P16621 1448-2029 C1670S): T1 sequence (P16621 1448-2029) with C223S
Nature of the data set: Surface Plasmon Resonance peptide binding, DLAR D1HSS D2. To be noted: two-site model, read-out: ka. On the procedure: as §3

Data set [4] concerns the target T2, DLAR D1 D2HSS. Nature of the data set: Surface Plasmon Resonance peptide binding, DLAR D1 D2HSS. The note with it: two-site model, read-out: ka. On the procedure:
as §3

Substrate in data set [5]: CC(C)C[C@H](NC(=O)[C@H](C)NC(=O)CNC(=O)[C@H](Cc1ccc(OP(=O)(O)O)cc1)NC(=O)[C@H](CC(=O)O)NC(=O)[C@@H]1CCCN1C(=O)[C@H](CCC(=O)O)NC(=O)[C@H](C)NC(=O)[C@@H](N)[C@@H](C)O)C(=O)N[C@@H](Cc1ccc(O)cc1)C(=O)N[C@@H](CCC(=O)O)C(=O)O
In words: purified protein, by the assay type. The note with it: other: 0.01 µM protein, 25 mM citrate pH 6.0, 15 min at 25°C, malachite green.

Substrate in data set [6]: CC[C@H](C)[C@H](NC(=O)[C@H](CC(=O)O)NC(=O)[C@H](CCCNC(=N)N)NC(=O)[C@@H](N)[C@@H](C)O)C(=O)N[C@@H](Cc1ccc(OP(=O)(O)O)cc1)C(=O)N[C@@H](CCC(=O)O)C(=O)N[C@H](C(=O)N[C@@H](CC(=O)O)C(=O)N[C@@H](Cc1ccc(O)cc1)C(=O)N[C@@H](Cc1ccc(O)cc1)C(=O)N[C@@H](CCCNC(=N)N)C(=O)N[C@@H](CCCCN)C(=O)O)[C@@H](C)O
In words: purified protein, by the assay type. The note with it: other: 0.01 µM protein, 25 mM citrate pH 6.0, 15 min at 25°C, malachite green.

Where [7] appears, read: pH 8, SPR Biacore-2000, 25°C, 10 mM HEPES pH 8.0, 150 mM NaCl, 10 mM DTT, 3 mM EDTA, peptides 50–700 µM, first binding site.
Setting [8] is: pH 8, SPR, 25°C, pH 8.0, second binding site.

T2 sequence (P16621 1448-2029 C1961S): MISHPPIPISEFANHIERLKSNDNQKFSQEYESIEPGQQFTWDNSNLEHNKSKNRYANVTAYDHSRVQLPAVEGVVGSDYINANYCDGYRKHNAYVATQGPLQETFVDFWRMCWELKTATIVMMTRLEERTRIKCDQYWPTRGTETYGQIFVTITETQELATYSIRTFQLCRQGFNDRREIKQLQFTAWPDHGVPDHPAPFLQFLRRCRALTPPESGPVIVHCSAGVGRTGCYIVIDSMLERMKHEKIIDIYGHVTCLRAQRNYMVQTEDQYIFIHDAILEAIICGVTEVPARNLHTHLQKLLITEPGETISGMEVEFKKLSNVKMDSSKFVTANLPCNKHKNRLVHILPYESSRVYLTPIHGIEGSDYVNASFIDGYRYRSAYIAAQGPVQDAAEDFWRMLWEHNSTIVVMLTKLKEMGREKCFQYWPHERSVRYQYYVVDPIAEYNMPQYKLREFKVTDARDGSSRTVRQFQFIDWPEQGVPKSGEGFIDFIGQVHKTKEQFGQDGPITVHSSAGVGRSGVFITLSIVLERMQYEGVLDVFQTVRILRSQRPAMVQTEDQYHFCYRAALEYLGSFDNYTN

The Km is the concentration of substrate that gives half-maximal velocity. Usually Kd stands for the concentration at which binding is half-saturated. High values mean lower affinity, low ones higher affinity. For the molecule `CC[C@H](C)[C@H](NC(=O)[C@H](CC(=O)O)NC(=O)[C@H](CCCNC(=N)N)NC(=O)[C@@H](N)[C@@H](C)O)C(=O)N[C@@H](Cc1ccc(OP(=O)(O)O)cc1)C(=O)N[C@@H](CCC(=O)O)C(=O)N[C@H](C(=O)N[C@@H](CC(=O)O)C(=O)N[C@@H](Cc1ccc(O)cc1)C(=O)N[C@@H](Cc1ccc(O)cc1)C(=O)N[C@@H](CCCNC(=N)N)C(=O)N[C@@H](CCCCN)C(=O)O)[C@@H](C)O` [Insulin Receptor peptide], the Michaelis constant (Km) was 110 ± 7.82 µM on DLAR D1D2 [1], 45.3 ± 4.1 µM on DLAR D1 D2HSS [2] and 59.5 ± 5.6 µM at DLAR D1. At DLAR D1D2 [3] (SPR, 25°C, pH 8.0, first binding site), this molecule returned an equilibrium dissociation constant (Kd) of 62.2 ± 0.48 µM. Moreover, the kon at DLAR D1D2 [3] (setting [7]) was found to be 110 ± 2.32 M⁻¹ s⁻¹; at DLAR D1D2 [3] (setting [8]), 2860 ± 90000 M⁻¹ s⁻¹; on DLAR D1HSS D2 (setting [7]), 72.6 ± 1.2 M⁻¹ s⁻¹; at DLAR D1HSS D2 (setting [8]), 74.5 ± 1.6 M⁻¹ s⁻¹; on DLAR D1 D2HSS [4] (setting [7]), 137 ± 2.84 M⁻¹ s⁻¹; on DLAR D1 D2HSS [4] (setting [8]), 12.3 ± 0.02 M⁻¹ s⁻¹.

B1: PTP99A D1 (Drosophila melanogaster) (protein)
chain: DEIRAAVPVNEFAKHVASLHADGDIGFSREYEAIQNECISDDLPCEHSQHPENKRKNRYLNITAYDHSRVHLHPTPGQKKNLDYINANFIDGYQKGHAFIGTQGPLPDTFDCFWRMIWEQRVAIIVMITNLVERGRRKCDMYWPKDGVETYGVIQVKLIEEEVMSTYTVRTLQIKHLKLKKKKQCNTEKLVYQYHYTNWPDHGTPDHPLPVLNFVKKSSAANPAEAGPIVVHCSAGVGRTGTYIVLDAMLKQIQQKNIVNVFGFLRHIRAQRNFLVQTEEQYIFLHDALVEAIASGETNLMAEQVEE
What is called Vmax is the top rate of the reaction or transport when substrate is in excess. Usually kcat stands for the maximal rate divided by the concentration of active sites. By kcat/Km is commonly meant the second-order rate constant that governs catalysis at low substrate concentration. Turning to B1, in data set [5], the Km is 309.04 ± 33.32 µM, the maximum rate (Vmax) is 1.26 µmol/min/mg, the kcat came out at 0.84 ± 0.04 s⁻¹ and the kcat/Km turned out to be 2718 ± 15 M⁻¹ s⁻¹. Also, in data set [6], the Km is given as 1017 ± 161.84 µM, the maximal velocity (Vmax) stood at 2.37 µmol/min/mg, the turnover number (kcat) came out at 1.58 ± 0.11 s⁻¹ and the specificity constant (kcat/Km) amounted to 1550 ± 22 M⁻¹ s⁻¹.

B2: PTP99A D1 D2 (Drosophila melanogaster) (protein)
chain: DEIRAAVPVNEFAKHVASLHADGDIGFSREYEAIQNECISDDLPCEHSQHPENKRKNRYLNITAYDHSRVHLHPTPGQKKNLDYINANFIDGYQKGHAFIGTQGPLPDTFDCFWRMIWEQRVAIIVMITNLVERGRRKCDMYWPKDGVETYGVIQVKLIEEEVMSTYTVRTLQIKHLKLKKKKQCNTEKLVYQYHYTNWPDHGTPDHPLPVLNFVKKSSAANPAEAGPIVVHCSAGVGRTGTYIVLDAMLKQIQQKNIVNVFGFLRHIRAQRNFLVQTEEQYIFLHDALVEAIASGETNLMAEQVEELKNCTPYLEQQYKNIIQFQPKDIHIASAMKQVNSIKNRGAIFPIEGSRVHLTPKPGEDGSDYINASWLHGFRRLRDFIVTQHPMAHTIKDFWQMVWDHNAQTVVLLSSLDDINFAQFWPDEATPIESDHYRVKFLNKTNKSDYVSRDFVIQSIQDDYELTVKMLHCPSWPEMSNPNSIYDFIVDVHERCNDYRNGPIVIVDRYGGAQACTFCAISSLAIEMEYCSTANVYQYAKLYHNKRPGVWTSSEDIRVIYNILSFLPGNLNLLKRTALRTEFEDVTTATPDLYSKICSNG
For B2, in data set [5], the Michaelis-Menten constant (Km) came out at 112.42 ± 10.14 µM, the maximal velocity (Vmax) worked out at 17.1 µmol/min/mg, the kcat stood at 21.1 ± 0.82 s⁻¹ and the kcat/Km was determined as 188000 ± 12900 M⁻¹ s⁻¹. Further, in data set [6], the Km is listed as 35.75 ± 2.08 µM, the maximal velocity (Vmax) was determined as 46 µmol/min/mg, the kcat was 56.9 ± 1.03 s⁻¹ and the kcat/Km was 1.638e+06 ± 7400 M⁻¹ s⁻¹.
